The text below walks through data of publication PMC7605441.

The chains are these.
B1: wild-type murine RAD51AP1 fused to mCherry [mouse] / murine RAD51 with a C-terminal EGFP tag [mouse] (parent)
chain 1: MVRPTRNRKPINYSQFEDSGNDSDDDFISSSTPVNKSKTVPKVLKQDKPKPNLKNLQKEEVLPTEPPKKRVALDDKVFQRGLEVALALSVKELPTLTNQVKKSKEKSTDKQGKEKTENTGKPPRVSNCSVASDDVEDLDKITEEGDASSVEGERKSPSQAKAPRRRAPSEGSDGSSANDTESESATGEGSESDPDFDESKESDEDFGVRRSKESKKKTVQKKPAGEKKERKSKPKCEASVTSVDPAPAAIKSGSPSLPQAVGLPSEATRKPAIMCSPSAESKRPKWVPPAASGSRNSSSNALAGTPAKSPSQSLRLGLSRLAPVKRLHPSATSSQVR
chain 2: MAMQMQLEASADTSVEEESFGPQPISRLEQCGINANDVKKLEEAGYHTVEAVAYAPKKELINIKGISEAKADKILTEAAKLVPMGFTTATEFHQRRSEIIQITTGSKELDKLLQGGIETGSITEMFGEFRTGKTQICHTLAVTCQLPIDRGGGEGKAMYIDTEGTFRPERLLAVAERYGLSGSDVLDNVAYARGFNTDHQTQLLYQASAMMVESRYALLIVDSATALYRTDYSGRGELSARQMHLARFLRMLLRLADEFGVAVVITNQVVAQVDGAAMFAADPKKPIGGNIIAHASTTRLYLRKGRGETRICKIYDSPCLPEAEAMFAINADGVGDAKD

Variants of B1 are the subject of the first assay. As to the kind of experiment: co-immunoprecipitation (IP RAD51AP1, blot RAD51), band quantification. Conditions: asynchronous 293FT cells, transient co-expression, lane 5, parent: 1, read off a plot.
Take chain 1 T305D: the ratio to parent is 0.07.

Another assay covers variants of B1. As to the kind of experiment: co-immunoprecipitation (IP GFP-RAD51, blot RAD51AP1), band quantification. Conditions: asynchronous 293FT cells, transient co-expression, lane 15, parent: 1, read off a plot.
Turning to chain 1 T305D, the ratio to parent was found to be 0.32.

The next assay covers variants of B1. As to the kind of experiment: co-immunoprecipitation (IP RAD51AP1, blot RAD51), band quantification. The note with it: asynchronous 293FT cells, transient co-expression, lane 6, parent: 1, read off a plot.
For chain 1 S309A, the ratio to parent worked out at 0.71.

The variants in another assay derive from B1. Briefly: co-immunoprecipitation (IP GFP-RAD51, blot RAD51AP1), band quantification. The note with it: asynchronous 293FT cells, transient co-expression, lane 16, parent: 1, read off a plot.
Take chain 1 S309A: the ratio to parent was 0.53.

The variants in the next assay derive from B1. As to the kind of experiment: co-immunoprecipitation (IP RAD51AP1, blot RAD51), band quantification. The note with it: asynchronous 293FT cells, transient co-expression, lane 7, parent: 1, read off a plot.
Regarding chain 1 S309D, the ratio to parent is 0.18.

The variants in a further assay derive from B1. Briefly: co-immunoprecipitation (IP GFP-RAD51, blot RAD51AP1), band quantification. Conditions: asynchronous 293FT cells, transient co-expression, lane 17, parent: 1, read off a plot.
As for chain 1 S309D, the ratio to parent came out at 0.57.

The variants in a further assay derive from B1. As to the kind of experiment: co-immunoprecipitation (IP RAD51AP1, blot RAD51), band quantification. The note with it: asynchronous 293FT cells, transient co-expression, lane 9, parent: 1, read off a plot.
Take chain 1 T305D S309D: the ratio to parent was determined as 0.02.

Variants of B1 are the subject of a further assay. As to the kind of experiment: co-immunoprecipitation (IP GFP-RAD51, blot RAD51AP1), band quantification. The note with it: asynchronous 293FT cells, transient co-expression, lane 19, parent: 1, read off a plot.
Consider chain 1 T305D S309D, for which the ratio to parent amounted to 0.08.

In another assay the parent is B1. Briefly: co-immunoprecipitation (IP RAD51AP1, blot RAD51), band quantification. The note with it: asynchronous 293FT cells, transient co-expression, lane 8, parent: 1, read off a plot.
On to chain 1 T305A S309A, for which the ratio to parent turned out to be 0.95.

Variants of B1 are the subject of another assay. Briefly: co-immunoprecipitation (IP GFP-RAD51, blot RAD51AP1), band quantification. The note with it: asynchronous 293FT cells, transient co-expression, lane 18, parent: 1, read off a plot.
As to chain 1 T305A S309A, the ratio to parent was found to be 0.45.
